Assay [1] deals with CRF receptors on rat anterior pituitary cells (rat).
The target is the same in assay [2]. This is another data set of the same source.
For assay [3] the target is unchanged. The source holds these as a separate data set.
The target is the same in assay [4]. This is another data set of the same source.
Assay [5] has the same target. The source holds these as a separate data set.
Assay [6] shares this target. The source holds these as a separate data set.

Read-outs that look alike come from different tables or passages of the source.

Consider “(cyclo 28-31) D-Phe^12, Nle^21,38, Glu^28, Lys^31 !-r/hCRF(12-41) (peptide)”, for which, in assay [1], the in vitro biopotency: inhibition of ACTH secretion (times the Standard) was determined as 3.12.

Turning to “(cyclo 28-32) D-Phe^12, Nle^21,38, Glu^28, D-Ala^31, Lys^32 !-r/hCRF(12-41) (peptide)”, the in vitro biopotency: inhibition of ACTH secretion (times the Standard) in assay [2] is 4.91.

In assay [3], “(cyclo 28-32) D-Phe^12, Nle^21,38, Glu^28, D-Gln^30, Lys^32 !-r/hCRF(12-41) (peptide)” showed an in vitro biopotency: inhibition of ACTH secretion (times the Standard) of 3.69.

With “(cyclo 28-32) D-Phe^12, Nle^21,38, Glu^28, Lys^32 !-r/hCRF(12-41) (peptide)”, in assay [4], the in vitro biopotency: inhibition of ACTH secretion (times the Standard) stood at 7.3.

Regarding “(cyclo 29-32) D-Phe^12, Nle^21,38, Glu^29, Lys^32 -r/hCRF(12-41) (peptide)”, the in vitro biopotency: inhibition of ACTH secretion (times the Standard) in assay [5] was 3.38.

Turning to “(cyclo 29-33) D-Phe^12, Nle^21,38, Glu^29, Lys^33 -r/hCRF(12-41) (peptide)”, the in vitro biopotency: inhibition of ACTH secretion (times the Standard) in assay [6] was 7.15.

The values are drawn from patent publication US5777073.
